Data published in patent US20100226910.

Biological target: Synthetic human amyloid protein Aβ1-42 or Aβ1-40 (UniProt P05067)
Sequence (P05067 whole entry, looked up, tested part not stated): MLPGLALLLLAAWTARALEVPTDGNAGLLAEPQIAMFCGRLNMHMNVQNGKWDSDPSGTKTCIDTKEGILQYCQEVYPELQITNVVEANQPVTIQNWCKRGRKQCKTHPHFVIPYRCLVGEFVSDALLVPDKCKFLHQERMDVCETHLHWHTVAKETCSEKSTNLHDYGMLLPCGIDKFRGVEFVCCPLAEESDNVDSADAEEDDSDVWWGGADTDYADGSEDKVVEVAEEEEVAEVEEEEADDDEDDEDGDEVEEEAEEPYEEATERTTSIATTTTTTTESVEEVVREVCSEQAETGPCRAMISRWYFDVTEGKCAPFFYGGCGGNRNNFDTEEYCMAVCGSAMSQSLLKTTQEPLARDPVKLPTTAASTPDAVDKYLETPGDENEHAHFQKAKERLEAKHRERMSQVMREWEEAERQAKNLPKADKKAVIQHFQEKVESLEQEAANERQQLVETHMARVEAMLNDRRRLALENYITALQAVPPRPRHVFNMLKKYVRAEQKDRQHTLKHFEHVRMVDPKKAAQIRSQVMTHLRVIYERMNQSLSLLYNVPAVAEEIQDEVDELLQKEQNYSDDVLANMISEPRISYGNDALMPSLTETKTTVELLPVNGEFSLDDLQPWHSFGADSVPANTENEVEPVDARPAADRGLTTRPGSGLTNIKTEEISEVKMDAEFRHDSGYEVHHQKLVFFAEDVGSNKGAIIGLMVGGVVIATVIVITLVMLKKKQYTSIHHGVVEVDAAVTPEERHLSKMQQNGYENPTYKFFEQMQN

Substance: KLK1 (Sigma)
- cleavage of amyloid fibrils in vitro, mass spectra after digestion: KLK1 cleaves amyloid fibrils (FIG. 1); in panel C, there is a clear peak at about 2423 M/Z (mass to charge ration), which is an indication of cleavage
- cleavage of soluble amyloid in vitro, mass spectra after digestion: In panel B, there are no visible peaks when KLK1 was added to soluble amyloid. This indicates that KLK1 cleaved the soluble amyloid into smaller fragments
